The results in this text go back to patent US20250090676A1 (SUTRO BIOPHARMA, published 2025).

The target in assay [1] is T1, murine folate receptor alpha (mouse, UniProt P35846 25-232).
T1 construct: Expressed on the surface of stably transfected CHO cells; also called mouse FolR1; CHO-mouse FolR1
Nature of the assay: FACS, CHO-mFOLR1 cells.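 Note: flow cytometry binding of serially diluted test antibodies to transfected CHO cells on ice, mean fluorescence intensity, parental CHO cells give background, Kd from one-site specific binding fit with Hill slope.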
Method: (§1) CHO cells were transfected to stably express human (CHO-hFOLR1), cynomolgus (CHO-cFOLR1), or mouse (CHO-mFOLR1) target molecule FOLR1 on the cell surface. Parental CHO cells were used as a negative control to determine background binding levels. Parental CHO and stably transfected CHO-hFOLR1, CHO-cFOLR1, and CHO-mFOLR1 cells were cultured in Ham's F-12: high glucose DMEM (50:50) (Corning, Cellgro-Mediatech) supplemented with 10% heat-inactivated fetal bovine serum (Corning, Cellgro-Mediatech), 1% Penicillin/Streptomycin (Corning, Cellgro-Mediatech) and 2 mmol/L-glutamax (Life Technology).
(§2) A mixture of fluoresecent-labeled parental CHO cells and unlabeled CHO-hFOLRlcells were prepared as follows. Parental CHO cells were washed twice in PBS and incubated in PBS containing with 1 nM CellTrace™ Oregon Green488® (Life Technologies) at 37° C. for 30 minutes. Labeled parental CHO cells were then washed 2× with Ham's F-12 media and 2× with FACS buffer (PBS with 1% bovine serum albumin). Unlabeled CHO-hFOLR1 cells were similarly washed and prepared. Labeled parental CHO and unlabeled CHO-hFOLR1 cells were combined at 1:1 ratio and seeded at 50 μL per well (200,000 cells per well) in 96 well polypropylene plates. Cells were mixed with 50 μL of test antibodies (i.e., anti-FOLR1 variants) serially diluted in FACS buffer and incubated on ice for 60 mins. […] Data were analyzed using FlowJo® software (FlowJo, LLC; Ashland, OR) to determine mean fluorescence intensities. Binding constants were calculated using the statistical software, GraphPad Prism (GraphPad Software; La Jolla, CA) using the nonlinear regression equation, one site-specific binding with Hill slope. Secondary antibody alone was used as a control, in addition to measuring non-specific antibody binding to CHO parental cells.

The target of assay [2] is T2, human folate receptor alpha (hFOLR1) (human, UniProt P15328 25-234).
T2 construct: endogenous on FOLR1-positive KB and Igrov1 cells (cell killing); also called human FolR1; FolRα
Nature of the assay: FACS, CHO-hFOLR1 cells.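 Note: flow cytometry of serially diluted antibodies binding CHO cells stably expressing the receptor, 60 min on ice, mixed with dye-tagged parental CHO as background control, one-site specific fit with Hill slope.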 For orientation: In flow cytometry, cells or beads pass a laser one at a time.
Method: as §1, §2

For assay [3], the target named is T3, cynomolgus monkey folate receptor alpha (cynomolgus monkey, UniProt P15328 25-234 (human entry)).
T3 construct: Expressed on the surface of stably transfected CHO cells; also called cyno FolR1; CHO-cyno FolR1
Nature of the assay: FACS, CHO-cFOLR1 cells.
Method: as §1, §2

Assay [4] deals with T2, human folate receptor alpha (hFOLR1). Nature of the assay: cell-based or functional assay.

T1 sequence (P35846 25-232 limits assumed): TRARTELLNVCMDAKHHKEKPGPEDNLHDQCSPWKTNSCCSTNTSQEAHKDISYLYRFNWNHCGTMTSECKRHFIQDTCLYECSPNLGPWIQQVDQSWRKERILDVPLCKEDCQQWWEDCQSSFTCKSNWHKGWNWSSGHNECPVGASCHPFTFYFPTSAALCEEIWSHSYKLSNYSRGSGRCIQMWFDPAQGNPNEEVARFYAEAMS
T2 sequence (P15328 25-234 limits assumed): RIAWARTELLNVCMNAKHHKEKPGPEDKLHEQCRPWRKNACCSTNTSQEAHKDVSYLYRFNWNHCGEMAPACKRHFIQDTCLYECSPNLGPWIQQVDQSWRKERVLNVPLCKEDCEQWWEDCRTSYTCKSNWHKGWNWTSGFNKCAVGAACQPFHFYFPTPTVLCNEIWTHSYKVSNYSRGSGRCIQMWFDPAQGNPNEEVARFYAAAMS
T3 sequence (P15328 other isoform, or with tags, fused parts or gaps limits assumed): as the sequence (P15328 25-234 limits assumed) above, with I2T, W4R, R37K, Q117R, A146P, H171Y counted along it

B1: SRP1848-B07 (antibody, V domains shown)
VH: EVQLVESGGGLVQPGGSLRLSCAASGFNISRFYIHWVRQAPGKGLEWVGGISPYDGFTDYADSVKGRFTISADTSKNTAYLQMNSLRAEDTAVYYCARGSWSWPAGYGYYQDYWGQGTLVTVSS
VL: not shown
notes: HC variant paired with trastuzumab LC, cell-free expressed, HIS- and FLAG-tagged; also called Antibody 14
Broadly, the Kd is a measure of binding affinity in units of concentration. Take B1: the binding result in assay [1] is “no binding”. Also, in assay [2], the “Bmax (MFI)” value is 25600 MFI and binding was put at a Kd of 0.66 nM. Also, in assay [3], the “Bmax (MFI)” value turned out to be 25500 MFI and the Kd was 1.05 nM. In assay [4], the “Igrov, 2° Antibody Cell Killing, Nb-SC239: EC50” value (“Igrov … EC50” below) is 0.038 nM; the “Igrov, 2° Antibody Cell Killing, Nb-SC239: Span” value (from here on “Igrov … Span”) came out at 73%; the “KB, 2° Antibody Cell Killing, Nb-239: EC50” value (shortened to “KB … EC50”) came to 0.079 nM; the “KB, 2° Antibody Cell Killing, Nb-239: Span” value (shortened to “KB … Span”) worked out at 96%.

B2: SRP1848-C03 (antibody, V domains shown)
VH: EVQLVESGGGLVQPGGSLRLSCAASGFNIGVYSIHWVRQAPGKGLEWVGEIYPIDGNTDYADSVKGRFTISADTSKNTAYLQMNSLRAEDTAVYYCARGSWAWRSGYSYYLDYWGQGTLVTVSS
VL: not shown
notes: HC variant paired with trastuzumab LC, cell-free expressed, HIS- and FLAG-tagged; also called Antibody 19
Regarding B2, in assay [1], the “Bmax (MFI)” value turned out to be 3310 MFI and the Kd turned out to be 3 nM. In addition, in assay [2], the “Bmax (MFI)” value came out at 29100 MFI and binding was put at a Kd of 0.51 nM. In assay [3], the “Bmax (MFI)” value was 25100 MFI and the affinity, expressed as Kd, was 0.5 nM. Besides, in assay [4], the “Igrov … EC50” value was determined as 0.035 nM; the “Igrov … Span” value worked out at 72%; the “KB … EC50” value was 0.074 nM; the “KB … Span” value was determined as 93%.

B3: SRP1848-C10 (antibody, V domains shown)
VH: EVQLVESGGGLVQPGGSLRLSCAASGFNIRTYYIHWVRQAPGKGLEWVGGISPIDGYTDYADSVKGRFTISADTSKNTAYLQMNSLRAEDTAVYYCARGSWSWPAGYGYYLDYWGQGTLVTVSS
VL: not shown
notes: HC variant paired with trastuzumab LC, cell-free expressed, HIS- and FLAG-tagged; also called Antibody 23
Turning to B3, in assay [1], the “Bmax (MFI)” value worked out at 2330 MFI and the Kd was 5.6 nM. Also, in assay [2], the “Bmax (MFI)” value was 27500 MFI and binding was put at a Kd of 0.91 nM. For the same molecule, in assay [3], the “Bmax (MFI)” value came out at 16000 MFI and the Kd was found to be 0.27 nM. Also, in assay [4], the “Igrov … EC50” value turned out to be 0.036 nM; the “Igrov … Span” value was 75%; the “KB … EC50” value amounted to 0.057 nM; the “KB … Span” value was 96%.

B4: SRP1848-C01 (antibody, V domains shown)
VH: EVQLVESGGGLVQPGGSLRLSCAASGFNIGNSYIHWVRQAPGKGLEWVGGVTPNDGYTDYADSVKGRFTISADTSKNTTYLQMNSLRAEDTAVYYCARGSWFWRAGYGYYLDYWGQGALVTVSS
VL: not shown
notes: HC variant paired with trastuzumab LC, cell-free expressed, HIS- and FLAG-tagged; also called Antibody 18
In the case of B4, in assay [1], the “Bmax (MFI)” value is 1370 MFI and the Kd came out at 26 nM. In assay [2], the “Bmax (MFI)” value stood at 28500 MFI and the affinity, expressed as Kd, was 0.66 nM. Besides, in assay [3], the “Bmax (MFI)” value was found to be 25900 MFI and binding was characterised by a dissociation constant (Kd) of 0.6 nM. Moreover, in assay [4], the “Igrov … EC50” value was 0.023 nM; the “Igrov … Span” value was 68%; the “KB … Span” value came out at 90%.

B5: SRP1848-C04 (antibody, V domains shown)
VH: EVQLVESGGGLVQPGGSLRLSCAASGFNIRHYSIHWVRQAPGKGLEWVGEIYPGPGNTDYADSVKGRFTISADTSKNTAYLQMNSLRAEDTAVYYCARGSLSWRAGYGYYLDYWGQGTLVTVSS
VL: not shown
notes: HC variant paired with trastuzumab LC, cell-free expressed, HIS- and FLAG-tagged; also called Antibody 20
Turning to B5, in assay [1], the “Bmax (MFI)” value turned out to be 2510 MFI and the Kd amounted to 62 nM. In assay [2], the “Bmax (MFI)” value was 26300 MFI and the Kd came to 0.44 nM. Further, in assay [3], the “Bmax (MFI)” value was determined as 22000 MFI and the Kd is 0.86 nM. Moreover, in assay [4], the “Igrov … EC50” value came out at 0.016 nM; the “Igrov … Span” value came to 68%; the “KB … EC50” value amounted to 0.006 nM; the “KB … Span” value came to 94%.

B6: SRP1848-C05 (antibody, V domains shown)
VH: EVQLVESGGGLVQPGGSLRLSCAASGFNIRKYSIHWVRQAPGKGLEWVGDIFPIDGINDYADSVKGRFTISADTSKNTAYLQMNSLRAEDTAVYYCARGSWSWKAGYGYYLDYWGQGTLVTVSS
VL: not shown
notes: HC variant paired with trastuzumab LC, cell-free expressed, HIS- and FLAG-tagged; also called Antibody 21
On to B6, for which, in assay [1], the “Bmax (MFI)” value came to 4130 MFI and binding was characterised by a dissociation constant (Kd) of 4.8 nM. In addition, in assay [2], the “Bmax (MFI)” value was found to be 26800 MFI and the equilibrium dissociation constant (Kd) was 0.52 nM. Moreover, in assay [3], the “Bmax (MFI)” value is 15200 MFI and binding was put at a Kd of 0.35 nM. Moreover, in assay [4], the “Igrov … EC50” value is 0.021 nM; the “Igrov … Span” value is 62%; the “KB … EC50” value came out at 0.073 nM; the “KB … Span” value is 92%.

B7: SRP1848-B09 (antibody, V domains shown)
VH: EVQLVESGGGLVQPGGSLRLSCAAGGFNITNYYIHWVRQAPGKGLEWVGGITPVDGYTDYADRVKGRFTISADTSKNTAYLQMNSLRAEDTAVYYCARGAWSWRSGYGYYMDYWGQGTLVTVSS
VL: not shown
notes: HC variant paired with trastuzumab LC, cell-free expressed, HIS- and FLAG-tagged; also called Antibody 15
As for B7, in assay [1], the “Bmax (MFI)” value was found to be 1420 MFI and the Kd stood at 78 nM. In assay [2], the “Bmax (MFI)” value was determined as 25200 MFI and the Kd was 0.46 nM. Also, in assay [3], the “Bmax (MFI)” value worked out at 25200 MFI and the Kd was determined as 0.99 nM. Moreover, in assay [4], the “Igrov … EC50” value came to 0.027 nM; the “Igrov … Span” value was determined as 74%; the “KB … EC50” value was determined as 0.073 nM; the “KB … Span” value turned out to be 97%.

B8: SRP1848-B11 (antibody, V domains shown)
VH: EVQLVESGGGLVQPGGSLRLSCAASGFNIGNNSIHWVRQAPGKGLEWVGDISPIDGFTDYADSVKGRFTISADTSKNTAYLQMNSLRAEDTAVYYCARGSWSWRAGYGYYLDYWGQGTLVTVSS
VL: not shown
notes: HC variant paired with trastuzumab LC, cell-free expressed, HIS- and FLAG-tagged; also called Antibody 17
With B8, in assay [1], the “Bmax (MFI)” value is 1630 MFI and the Kd is 3.9 nM. Further, in assay [2], the “Bmax (MFI)” value amounted to 28400 MFI and the equilibrium dissociation constant (Kd) was determined as 0.56 nM. Besides, in assay [3], the “Bmax (MFI)” value is 22900 MFI and binding was characterised by a dissociation constant (Kd) of 0.34 nM. Also, in assay [4], the “Igrov … EC50” value turned out to be 0.026 nM; the “Igrov … Span” value stood at 74%; the “KB … EC50” value worked out at 0.058 nM; the “KB … Span” value is 93%.

B9: SRP1848-D05 (antibody, V domains shown)
VH: EVQLVESGGGLVQPGGSLRLSCAASGFNISISYIHWVRQAPGKGLEWVGGISPIDGYTDYADSVKGRFTISADTSKNTAYLQMNSLRAEDTAVYYCARGSWSWRAGYGYYLDYWGQGTLVTVSS
VL: not shown
notes: HC variant paired with trastuzumab LC, cell-free expressed, HIS- and FLAG-tagged; also called Antibody 27
B9: in assay [1], the “Bmax (MFI)” value came to 1360 MFI and binding was characterised by a dissociation constant (Kd) of 14 nM. Besides, in assay [2], the “Bmax (MFI)” value is 26700 MFI and the dissociation constant Kd worked out at 0.57 nM. In assay [3], the “Bmax (MFI)” value is 22200 MFI and binding was characterised by a dissociation constant (Kd) of 0.45 nM. In addition, in assay [4], the “Igrov … Span” value amounted to 73%; the “KB … EC50” value is 0.055 nM; the “KB … Span” value came out at 92%.

B10: SRP1848-D02 (antibody, V domains shown)
VH: EVQLVESGGGLVQPGGSLRLSCAASGFNISHNYIHWVRQAPGKGLEWVGGITPQDGYTDYADSVKGRFTISADTSKNTAYLQMNRLRAEDTAVYYCARGAWSWRAGYGYYLDYWGQGTLVTVSS
VL: not shown
notes: HC variant paired with trastuzumab LC, cell-free expressed, HIS- and FLAG-tagged; also called Antibody 24
For the molecule B10, in assay [1], the “Bmax (MFI)” value came to 916 MFI and binding was put at a Kd of 87 nM. In assay [2], the “Bmax (MFI)” value stood at 28800 MFI and the Kd was determined as 0.6 nM. For the same molecule, in assay [3], the “Bmax (MFI)” value came to 28000 MFI and the Kd was determined as 0.61 nM. Besides, in assay [4], the “Igrov … EC50” value was 0.027 nM; the “Igrov … Span” value was 71%; the “KB … EC50” value came to 0.034 nM; the “KB … Span” value was 93%.

B11: SRP1848-B10 (antibody, V domains shown)
VH: EVQLVESGGGLVQPGGSLRLSCAASGFNTTTKSIHWVRQAPGKGLEWVGEIYPRDGITDYADSVKGRFTISADTSKNTAYLQMNSLRAEDTAVYYCARGGWHWRSGYSYYLDYWGQGTLVTVSS
VL: not shown
notes: HC variant paired with trastuzumab LC, cell-free expressed, HIS- and FLAG-tagged; also called Antibody 16
Take B11: in assay [1], the “Bmax (MFI)” value was 2460 MFI and the Kd amounted to 7.3 nM. Moreover, in assay [2], the “Bmax (MFI)” value stood at 28200 MFI and the Kd turned out to be 0.83 nM. In assay [3], the “Bmax (MFI)” value is 21300 MFI and the Kd turned out to be 0.44 nM. Also, in assay [4], the “Igrov … Span” value was 71%; the “KB … EC50” value is 0.04 nM; the “KB … Span” value turned out to be 97%.

B12: SRP1848-C07 (antibody, V domains shown)
VH: EVQLVESGGGLVQPGGSLRLSCAASGFNIRKYSIHWVRQAPGKGLEWVGDIFPIDGITDYADSMKGRFTISADTSKNTAYLQMNSLRAEDTAVYYCARGSWSWPAGYGYYQDYWGQGTLVTVSS
VL: not shown
notes: HC variant paired with trastuzumab LC, cell-free expressed, HIS- and FLAG-tagged; also called Antibody 22
In the case of B12, in assay [1], the “Bmax (MFI)” value turned out to be 3170 MFI and the dissociation constant Kd is 1.4 nM. In addition, in assay [2], the “Bmax (MFI)” value is 28800 MFI and the Kd turned out to be 0.62 nM. Besides, in assay [3], the “Bmax (MFI)” value worked out at 18100 MFI and the Kd turned out to be 0.23 nM. Also, in assay [4], the “Igrov … EC50” value came to 0.013 nM; the “Igrov … Span” value was found to be 67%; the “KB … EC50” value was determined as 0.065 nM; the “KB … Span” value stood at 93%.

B13: SRP1848-D04 (antibody, V domains shown)
VH: EVQLVESGGGLVQPGGSLRLSCAASGFNISHYSIHWVRQAPGKGLEWVGEIYPRDGITDYADSVKGRFTISADTSKNTAYLQMNSLSAEDTAVYYCARGYWFWRSGYGYYLDYWGQGTLVTVSS
VL: not shown
notes: HC variant paired with trastuzumab LC, cell-free expressed, HIS- and FLAG-tagged; also called Antibody 26
In the case of B13, the binding result in assay [1] is on record as “no binding”. For the same molecule, in assay [2], the “Bmax (MFI)” value stood at 29300 MFI and the dissociation constant Kd turned out to be 2.21 nM. Also, in assay [3], the “Bmax (MFI)” value is 25700 MFI and binding was put at a Kd of 2.84 nM. In assay [4], the “Igrov … EC50” value was determined as 0.068 nM; the “Igrov … Span” value was found to be 77%; the “KB … EC50” value was found to be 0.38 nM; the “KB … Span” value worked out at 97%.
